Literature values as cited in publication PMC3343272.
pKd: −log10 of the molar value.

Target: Nonmuscle myosin IIA M32 1907-1938 (Homo sapiens) (UniProt P35579)
Assay: kinetic assay

Nonmuscle myosin IIA M32 1907-1938 (Homo sapiens), sequence (P35579 1907-1938): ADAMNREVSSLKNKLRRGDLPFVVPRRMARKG
S100A4, sequence (P26447 2-101): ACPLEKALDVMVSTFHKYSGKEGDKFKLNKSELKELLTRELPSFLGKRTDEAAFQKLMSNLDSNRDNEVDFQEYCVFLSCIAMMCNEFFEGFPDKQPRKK

In the case of S100A4 (from UniProt P26447), the pKd is listed as 5.52.
